Target: mouse BRCA1 protein (mouse) (UniProt P48754)
Experiment: cell-based or functional assay

Chain of UniProt P48754 (P48754 whole entry): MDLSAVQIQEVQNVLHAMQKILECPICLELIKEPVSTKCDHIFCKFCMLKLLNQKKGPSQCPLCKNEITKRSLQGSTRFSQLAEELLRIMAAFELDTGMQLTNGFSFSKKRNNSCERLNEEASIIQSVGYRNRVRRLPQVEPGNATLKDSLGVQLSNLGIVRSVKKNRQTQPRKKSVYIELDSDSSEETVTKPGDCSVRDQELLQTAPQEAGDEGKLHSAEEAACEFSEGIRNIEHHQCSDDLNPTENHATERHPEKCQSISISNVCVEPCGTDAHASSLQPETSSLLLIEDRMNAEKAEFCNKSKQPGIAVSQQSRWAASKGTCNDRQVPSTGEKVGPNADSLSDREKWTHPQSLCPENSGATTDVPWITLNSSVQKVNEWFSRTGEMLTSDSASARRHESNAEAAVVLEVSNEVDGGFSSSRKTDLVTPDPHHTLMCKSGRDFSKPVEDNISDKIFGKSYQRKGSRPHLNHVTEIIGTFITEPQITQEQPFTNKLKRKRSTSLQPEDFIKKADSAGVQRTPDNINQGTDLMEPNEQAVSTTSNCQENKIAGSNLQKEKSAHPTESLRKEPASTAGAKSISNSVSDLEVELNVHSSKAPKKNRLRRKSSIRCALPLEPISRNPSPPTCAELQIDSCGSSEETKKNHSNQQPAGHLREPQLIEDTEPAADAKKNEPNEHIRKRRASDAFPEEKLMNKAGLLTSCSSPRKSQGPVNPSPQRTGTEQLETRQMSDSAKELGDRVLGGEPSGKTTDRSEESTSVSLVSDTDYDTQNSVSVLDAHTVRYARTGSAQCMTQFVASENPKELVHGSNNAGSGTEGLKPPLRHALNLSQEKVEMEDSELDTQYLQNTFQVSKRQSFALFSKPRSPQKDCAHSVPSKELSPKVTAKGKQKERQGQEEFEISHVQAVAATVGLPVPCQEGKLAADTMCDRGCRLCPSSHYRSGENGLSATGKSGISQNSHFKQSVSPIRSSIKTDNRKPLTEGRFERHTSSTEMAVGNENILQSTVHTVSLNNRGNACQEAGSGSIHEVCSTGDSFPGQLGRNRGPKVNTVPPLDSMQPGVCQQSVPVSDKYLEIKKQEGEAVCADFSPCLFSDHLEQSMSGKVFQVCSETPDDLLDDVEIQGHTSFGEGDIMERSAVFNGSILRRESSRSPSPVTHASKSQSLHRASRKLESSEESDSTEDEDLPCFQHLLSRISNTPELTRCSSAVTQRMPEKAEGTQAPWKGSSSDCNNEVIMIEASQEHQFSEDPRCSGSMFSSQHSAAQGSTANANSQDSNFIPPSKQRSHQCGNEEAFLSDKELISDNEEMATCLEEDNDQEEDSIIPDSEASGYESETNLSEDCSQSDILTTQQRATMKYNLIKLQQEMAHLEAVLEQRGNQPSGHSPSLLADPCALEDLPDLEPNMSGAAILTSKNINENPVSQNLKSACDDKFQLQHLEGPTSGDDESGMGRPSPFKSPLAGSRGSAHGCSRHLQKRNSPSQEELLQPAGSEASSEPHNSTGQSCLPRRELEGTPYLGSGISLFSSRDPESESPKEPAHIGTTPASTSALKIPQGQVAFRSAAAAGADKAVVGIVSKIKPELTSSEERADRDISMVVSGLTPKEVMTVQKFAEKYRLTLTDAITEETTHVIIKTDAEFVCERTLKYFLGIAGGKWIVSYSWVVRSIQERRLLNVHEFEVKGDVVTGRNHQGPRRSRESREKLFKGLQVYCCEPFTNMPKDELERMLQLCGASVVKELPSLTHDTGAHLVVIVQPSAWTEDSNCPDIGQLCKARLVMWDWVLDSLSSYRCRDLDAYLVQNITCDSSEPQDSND

anti-FANCD2 foci co-localized with regions of intense anti-BRCA1 staining (20 pachytene nuclei of mouse spermatocytes): 65%
Substance: mouse FANCD2 protein (from UniProt Q80V62 1-1450)
